Reference: patent US6410255B1, “Optical probes and assays” (priority 1999, dated 2002)
Where no end group is shown, it is not given here. The star is where a group is joined. FITC = O=C1OC2(c3ccc(O)cc3Oc3cc(O)ccc32)c2ccc(NC(=S)*)cc21

Assays:
Type in all cases: biochemical
[1] = molecular target: protein kinase A (Homo sapiens, UniProt P17612); test: Protein kinase A inhibitor assay with optical probe; details: inhibitor 10 μM, ATP 10 μM
Experimental: […] After one hour incubation at 30 C, chymotrypsin to a final concentration of 0.8 nM was added and the 460/530 ratio was determined after one hour, as described above (Example 6).

[2] = molecular target: PTP-B; test: Inhibition of protein tyrosine phosphatase with phosphorylated Src-2 probe; details: read-out: apparent IC50
Experimental: (§1) Optical probes were first phosphorylated to completion as described above, and samples of phosphorylated optical probe, at a final concentration of 500 nM, were incubated with various concentrations of protein tyrosine phosphatase-B (PTP-B) agarose (Upstate Biotechnology) for 20 minutes at 30 C in 0.1×PBS. At the required time interval, PTP-B-agarose was removed by a brief microfuige spin prior to transfer to 96-well Cytofluor plates for fluorescence measurements, after addition of chymotrypsin (100 nM), as described in Example 1.

[3] = test system: protein tyrosine phosphatase-B (PTP-B); test: Dephosphorylation of phosphorylated optical probes by PTP-B; details: for Fluorescence emission ratio of peptide after protease treatment: phosphorylated probe 500 nM, 20 minutes at 30 C
Experimental: as §1
In this experiment, the relative rates of dephosphorylation of the phosphorylated Src-2-specific substrate (SEQ. ID. NO: 29) and an abl-specific (SEQ. I.D. No. 4) substrate optical probes by the protein tyrosine phosphatase PTP-B were compared.

[4] = molecular target: T1, Src kinase (Homo sapiens, UniProt P12931); test: Src kinase phosphorylation of optical probes; details: fluorescence after protease incubation; read-out: apparent Km with respect to the Src kinase
T1 construct: purchased Upstate Biotechnology

[5] = test system: protein kinase C; test: Proteolytic susceptibility of optical probe after protein kinase C phosphorylation; details: chymotrypsin
Source text: To measure protein kinase C activity using the optical probes of the present invention, a peptide ([…], SEQ. ID. NO: 12) was designed in which phosphorylation by protein kinase C occurred at the P′1 position (underlined in SEQ. ID. NO: 12) with respect to the scissile bond cleaved by chymotrypsin. This enabled an optimal protein kinase C recognition motif to placed within the optical probe sequence, and to create a site of phosphorylation that modulated the proteolytic sensitivity of the substrate towards chymotrypsin.

[6] = molecular target: chymotrypsin (Bos taurus, UniProt P00766); test: Chymotrypsin cleavage of optical probe with or without protein kinase A phosphorylation; details: for 460/530 emission ratio, Non-phosphorylated Optical probe / 460/530 emission ratio, Phosphorylated Optical probe: 0.8 nM chymotrypsin
Experimental: ID. NO: 12, below, (the P′1, position with respect to the protease cleavage site of chymotrypsin).
The peptide ([…], SEQ. ID. NO: 12) was labeled with fluorescein isothiocyanate at the N-termninus and 7-hydroxycoumarin-3-carboxamide at the C-terminus as described above. To determine the relative proteolytic activity of the phosphorylated and non-phosphorylated optical probes, samples of both were prepared. […] Mock kinase reactions with no ATP were used to create non-phosphorylated, control samples. In both cases, the samples were diluted 10 fold with buffer containing 50 mM HEPES, pH 7.5, 10 mM CaCl2 and 0.01% Brij-35, and incubated with 0.8 nM chymotrypsin.

[7] = molecular target: T2, caspase-3 (Homo sapiens, UniProt P42574); test: Caspase-3 cleavage of optical probe with or without ERK2 phosphorylation; details: 30 minutes exposure to caspase-3
T2 construct: purchased Upstate Biotechnology
T2 sequence (P42574 29-175 limits assumed): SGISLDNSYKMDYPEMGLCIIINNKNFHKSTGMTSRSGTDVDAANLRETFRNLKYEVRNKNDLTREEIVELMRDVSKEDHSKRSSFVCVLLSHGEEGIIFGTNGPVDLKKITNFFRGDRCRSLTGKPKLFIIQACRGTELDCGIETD
T2 sequence (P42574 176-277 limits assumed): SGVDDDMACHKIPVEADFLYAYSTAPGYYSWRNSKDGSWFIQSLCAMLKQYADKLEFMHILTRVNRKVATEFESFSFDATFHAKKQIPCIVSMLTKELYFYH
Experimental: To determine how phosphorylation on serine in the optical probe (SEQ. ID. NO: 24) effected the rate of caspase-3 cleavage, samples of phosphorylated and control (non-phosphorylated) optical probes were treated with the protease caspase-3. Phosphorylated samples of the optical probe (70 pmol) were prepared by 8 hour to overnight incubation with ERK2 kinase (Biomol). Reactions were typically performed in 10 μl using 200-500 μM ATP and 50-200 ng ERK2 in a buffer consisting of 50 mM HEPES, pH 7.5, 10 mM MgCl2, 1 mM EGTA, and 1 mM DTT at 30° C. Mock kinase reactions were performed for preparation of control (non-phosphorylated) optical probe as above, except ATP was omitted. To monitor cleavage of the optical probes by caspase-3, 10 μL volumes of phosphorylated and control (non-phosphorylated) samples of the optical probe were placed in individual wells of a 96-well multiwell plate. Caspase-3 cleavage reactions were carried out in these samples after dilution to 100 μL in a buffer consisting of 100 mM HEPES, pH 7.5, 5 mM DTT, 0.5 mM EDTA, 20% glycerol, 0.01% Brij-35, and 50-100 ng caspase-3 (Upstate Biotechnology), and incubated at room temperature. Emission readings were taken at 5 minute intervals during the course of the caspase-3 incubation using a Cytofluor plate reader as described in Example 1.

Molecule: O=S(=O)(NCCNC/C=C/c1ccc(Br)cc1)c1cccc2cnccc12 [H-89]
- inhibition of protein kinase A activity [1]: almost complete inhibition

Molecule: [O]=[V]([OH])([OH])[OH] [Ortho-vanadate, orthovanadate]
- IC50 [2]: 420 nM

Molecule: GEEEIYGVIEK [Src-2, fluorescently labeled optical probe for Src kinase; phosphorylated form is the PTP-B substrate]
- Fluorescence emission ratio of peptide after protease treatment ([3]; Log concentration of PTP-B −7.7): 17.7
- Fluorescence emission ratio of peptide after protease treatment ([3]; Log concentration of PTP-B −8.7): 17.6
- Fluorescence emission ratio of peptide after protease treatment ([3]; Log concentration of PTP-B −9.7): 15.8
- Fluorescence emission ratio of peptide after protease treatment ([3]; Log concentration of PTP-B −10.7): 5.40
- Fluorescence emission ratio of peptide after protease treatment ([3]; Log concentration of PTP-B −11.7): 1.99
- Fluorescence emission ratio of peptide after protease treatment ([3]; Log concentration of PTP-B −12.7): 1.75
- Fluorescence emission ratio of peptide after protease treatment ([3]; Log concentration of PTP-B −13.7): 1.62
- Fluorescence emission ratio of peptide after protease treatment ([3]; Log concentration of PTP-B −14.7): 1.60
- kcat ([3]; phosphorylated probe, PTP-B): 79 s⁻¹
- Km ([3]; phosphorylated probe, PTP-B, Michaelis-Menten plot, read-out: apparent Km): 1300 nM
- Km [4]: 19 µM

Molecule: RRRKFSLRRKA ({FITC}-RRRKFSLRRKA; not fully specified (residue 6, C-terminus)) [SEQ. ID. NO: 12, peptide labeled with fluorescein isothiocyanate at N-terminus and 7-hydroxycoumarin-3-carboxamide at C-terminus; protein kinase A and C probe]
- effect of phosphorylation by protein kinase C on proteolytic susceptibility of the substrate [5]: significantly modulated
- 460/530 emission ratio, Non-phosphorylated Optical probe ([6]; time of cleavage 0 minutes): 0.34
- 460/530 emission ratio, Phosphorylated Optical probe ([6]; time of cleavage 0 minutes): 0.33
- 460/530 emission ratio, Non-phosphorylated Optical probe ([6]; time of cleavage 10 minutes): 3.15
- 460/530 emission ratio, Phosphorylated Optical probe ([6]; time of cleavage 10 minutes): 0.54
- 460/530 emission ratio, Non-phosphorylated Optical probe ([6]; time of cleavage 20 minutes): 6.71
- 460/530 emission ratio, Phosphorylated Optical probe ([6]; time of cleavage 20 minutes): 0.78
- 460/530 emission ratio, Phosphorylated Optical probe ([6]; time of cleavage 30 minutes): 1.02
- 460/530 emission ratio, Phosphorylated Optical probe ([6]; time of cleavage 40 minutes): 1.27
- 460/530 emission ratio, Non-phosphorylated Optical probe ([6]; time of cleavage 50 minutes): 13.34
- 460/530 emission ratio, Phosphorylated Optical probe ([6]; time of cleavage 50 minutes): 1.53
- 460/530 emission ratio, Phosphorylated Optical probe ([6]; time of cleavage 60 minutes): 1.78
- Fold difference in ratios ([6]; time of cleavage 0 minutes): 1.0
- Fold difference in ratios ([6]; time of cleavage 10 minutes): 5.8
- Fold difference in ratios ([6]; time of cleavage 20 minutes): 8.6
- Fold difference in ratios ([6]; time of cleavage 30 minutes): 9.7
- Fold difference in ratios ([6]; time of cleavage 40 minutes): 9.5
- Fold difference in ratios ([6]; time of cleavage 50 minutes): 8.7
- Fold difference in ratios ([6]; time of cleavage 60 minutes): 7.9

Molecule: RVDEPFSPGEK (Optical probe with p-Ser in P′(sub 1)) [SEQ. ID. NO: 24, ERK kinase specific optical probe cleaved by caspase-3]
- maximal difference in emission ratio of phosphorylated and non-phosphorylated optical probes [7]: over a three fold difference
